Data published in the Human Domainome abundance scans (Beltran et al. 2025).
± gives the uncertainty stated by the source.

B1: Homeobox protein cut-like 1, residues 941 to 1008; numbered along this chain, P39880 (parent)
chain: QEVDTIELTRQVKEKLAKNGICQRIFGEKVLGLSQGSVSDMLSRPKPWSKLTQKGREPFIRMQLWLNG

Variants of: B1
Assay: abundance fitness (aPCA) (normalised: wild type 0, dead -1); higher = more abundant; growth selection in yeast, the domain comes from the species named
Details: Homo sapiens

Variant | abundance fitness
QEVDTIELTRQVKEKAAKNGICQRIFGEKVLGLSQGSVSDMLSRPKPWSKLTQKGREPFIRMQLWLNG [L16A] | -0.188 ± 0.067
QEVDTIELTRQVKEKWAKNGICQRIFGEKVLGLSQGSVSDMLSRPKPWSKLTQKGREPFIRMQLWLNG [L16W] | -0.194 ± 0.07
QEVDTIELTRQVKEKSAKNGICQRIFGEKVLGLSQGSVSDMLSRPKPWSKLTQKGREPFIRMQLWLNG [L16S] | -0.033 ± 0.055
QEVDTIELTRQVKEKLAKNGICQRIFGEKVLGLSQGNVSDMLSRPKPWSKLTQKGREPFIRMQLWLNG [S37N] | -0.033 ± 0.078
QEVDTIELTRQVKEKLAKNGICQRIFGEKALGLSQGSVSDMLSRPKPWSKLTQKGREPFIRMQLWLNG [V30A] | -0.253 ± 0.26
QEVDTIELTRQVKEKLAKNGICQRIFGEKVLGLSQGSVSDMLSRPKPWSKLTQKGREPFIRMQLWLLG [N67L] | -0.128 ± 0.063
QEVDTIELTRQVKKKLAKNGICQRIFGEKVLGLSQGSVSDMLSRPKPWSKLTQKGREPFIRMQLWLNG [E14K] | -0.111 ± 0.094
QEVDTIELTRQVKTKLAKNGICQRIFGEKVLGLSQGSVSDMLSRPKPWSKLTQKGREPFIRMQLWLNG [E14T] | -0.121 ± 0.076
QEVDTIELTRQVKEKLAKNGICQRIFGEKVLGLSQGSVSDMLSRPKPWSKLTQKGREPFIEMQLWLNG [R61E] | -0.479 ± 0.086
QEVDNIELTRQVKEKLAKNGICQRIFGEKVLGLSQGSVSDMLSRPKPWSKLTQKGREPFIRMQLWLNG [T5N] | -0.223 ± 0.13
QEVDEIELTRQVKEKLAKNGICQRIFGEKVLGLSQGSVSDMLSRPKPWSKLTQKGREPFIRMQLWLNG [T5E] | -0.204 ± 0.066
QEVDTIELTRQVKEKLAKNGICQRIFGEKVLGLSQGSVSDMLSRPFPWSKLTQKGREPFIRMQLWLNG [K46F] | -0.227 ± 0.13
QEVDTIELTRQVKEKLAKNGICQRIFGEKVLGLSQGSVSDMLSRPKPWSKLTQKGREPFIRMQLWLNS [G68S] | -0.229 ± 0.072
QEVDTIELTRQVKEKLAKNGICQRIFGEKVLGLSQGSVSDMLSRPKKWSKLTQKGREPFIRMQLWLNG [P47K] | -0.029 ± 0.071
QEVDTIELTRQVKEKLAKNGICQRIFGEKVLGLSQGSVSDMLSRPKDWSKLTQKGREPFIRMQLWLNG [P47D] | -0.158 ± 0.13
QEVDTIELTRQVKEKLAKNGICQRIFGEKVLGLSQGSVSDMLSRPKCWSKLTQKGREPFIRMQLWLNG [P47C] | -0.086 ± 0.091
QEVDTIELTRQVKEKLAKNGICQRIFGEKVLGLSQGSVSDMLSRPKPWSKLTQKGREPCIRMQLWLNG [F59C] | -0.817 ± 0.23
QEVDTIELTRQVKEKLAKNGICQRIFGEKVLGLSQGSVSDMLSRPKPWSKLTQKGREPVIRMQLWLNG [F59V] | -0.761 ± 0.064
QEVDTIELTRQVKEKLAKNGICQRIFGPKVLGLSQGSVSDMLSRPKPWSKLTQKGREPFIRMQLWLNG [E28P] | -0.145 ± 0.069
QEVDTIELTRQVKEKLAKNGICQRIFGWKVLGLSQGSVSDMLSRPKPWSKLTQKGREPFIRMQLWLNG [E28W] | -0.104 ± 0.063

Variant | abundance fitness
QEVDTIELTRKVKEKLAKNGICQRIFGEKVLGLSQGSVSDMLSRPKPWSKLTQKGREPFIRMQLWLNG [Q11K] | 0.132 ± 0.077
QEVDTIELTRQVKEKLAKNGICQRIFGEKVLGLSQGSVSDMLSRIKPWSKLTQKGREPFIRMQLWLNG [P45I] | -0.147 ± 0.088
QEVDTIELTRQVKEKLAKNGICQRIFGEKVLGLSQGSVSDMLSRPKPWSKLTQKGREPFIRMQNWLNG [L64N] | 0.065 ± 0.096
QEVDTIELTRQVKEKLAKNGICQRIFGEKVLGLSQGSVSDMLSRPKPWSKLTQKGREPFIRMQGWLNG [L64G] | -0.074 ± 0.06
QEVDTIELTRQAKEKLAKNGICQRIFGEKVLGLSQGSVSDMLSRPKPWSKLTQKGREPFIRMQLWLNG [V12A] | -0.171 ± 0.055
QEVDTIELTRQSKEKLAKNGICQRIFGEKVLGLSQGSVSDMLSRPKPWSKLTQKGREPFIRMQLWLNG [V12S] | -0.091 ± 0.059
QEVDTIELTRQVKEKLLKNGICQRIFGEKVLGLSQGSVSDMLSRPKPWSKLTQKGREPFIRMQLWLNG [A17L] | -0.148 ± 0.05
QEVDTIELTRQVKEKLAKNFICQRIFGEKVLGLSQGSVSDMLSRPKPWSKLTQKGREPFIRMQLWLNG [G20F] | -0.239 ± 0.11
QEVDTIELTAQVKEKLAKNGICQRIFGEKVLGLSQGSVSDMLSRPKPWSKLTQKGREPFIRMQLWLNG [R10A] | -0.096 ± 0.063
QEVDTIEKTRQVKEKLAKNGICQRIFGEKVLGLSQGSVSDMLSRPKPWSKLTQKGREPFIRMQLWLNG [L8K] | 0.04 ± 0.078
QEVDTIEMTRQVKEKLAKNGICQRIFGEKVLGLSQGSVSDMLSRPKPWSKLTQKGREPFIRMQLWLNG [L8M] | 0.019 ± 0.06
QEVLTIELTRQVKEKLAKNGICQRIFGEKVLGLSQGSVSDMLSRPKPWSKLTQKGREPFIRMQLWLNG [D4L] | -0.572 ± 0.048
QEVYTIELTRQVKEKLAKNGICQRIFGEKVLGLSQGSVSDMLSRPKPWSKLTQKGREPFIRMQLWLNG [D4Y] | -0.43 ± 0.074
QEVDTIELTRQVKEKLAKNGICQRIFGEKVLGLSQGSVSDMLSRPKPYSKLTQKGREPFIRMQLWLNG [W48Y] | -0.78 ± 0.12
QEVDTIELTRQVKEKLAKNGICQRIFGEKVLGLSQGSVSDMLSRPKPDSKLTQKGREPFIRMQLWLNG [W48D] | -1.08 ± 0.2
QEVDTIELTRQVKEKLAKNGICQRIFGEKVLGLSQGSVSDMLSRPKPHSKLTQKGREPFIRMQLWLNG [W48H] | -1.11 ± 0.16
QEVDTIELTRQVKEKLAKNGICQRIFGEKVLGLSQGSVSDMLSRPKPWSKLTQKGREPFKRMQLWLNG [I60K] | 0.013 ± 0.081
QEVDTIELTRQVKEKLAKNGICQRIFGEKVLGLSQGSVSDMLSRPKPWSKLTQKGREPFGRMQLWLNG [I60G] | -0.383 ± 0.067
QEVDTIELTRQVKEKLAKNGICQRIFGEKVLGLSQGSESDMLSRPKPWSKLTQKGREPFIRMQLWLNG [V38E] | -0.282 ± 0.063
